{"source": "ChEMBL document CHEMBL1250451", "about": "“Mechanistic insights into a Ca2+-dependent family of alpha-mannosidases in a human gut symbiont” (Nat Chem Biol, 2010)", "format_in_all_cases": "protein assay", "key": {"[1]": {"substrate": "O=[N+]([O-])c1ccc(O[C@H]2O[C@H](CO)[C@@H](O)[C@H](O)[C@@H]2O)c([N+](=O)[O-])c1", "assay": "(§1) Ratio of Kcat to Km for Bacteroides thetaiotaomicron GH92 alpha-mannosidase 3990 N601A mutant assessed as as mannose release after 16 hrs by HPLC relative to wild type enzyme; call rule not given here"}, "[2]": {"substrate": "OC[C@H]1O[C@H](O[C@H]2[C@@H](O)[C@H](O)[C@@H](CO)O[C@@H]2O)[C@@H](O)[C@@H](O)[C@@H]1O", "assay": "as §1"}, "[3]": {"substrate": "O=[N+]([O-])c1ccc(O[C@H]2O[C@H](CO)[C@@H](O)[C@H](O)[C@@H]2O)cc1", "assay": "as §1"}, "[4]": {"substrate": "OC[C@H]1O[C@H](O[C@H]2[C@@H](O)[C@H](O)[C@@H](CO)O[C@@H]2O)[C@@H](O)[C@@H](O)[C@@H]1O", "assay": "(§2) Activity of Bacteroides thetaiotaomicron GH92 alpha-mannosidase 3990 N601A mutant assessed as as mannose release after 16 hrs by HPLC relative to wild type enzyme"}, "[5]": {"substrate": "O=[N+]([O-])c1ccc(O[C@H]2O[C@H](CO)[C@@H](O)[C@H](O)[C@@H]2O)cc1", "assay": "as §2"}, "[6]": {"substrate": "OC[C@H]1O[C@H](O[C@H]2[C@@H](O)[C@H](O)[C@@H](CO)O[C@@H]2O)[C@@H](O)[C@@H](O)[C@@H]1O", "assay": "(§3) Ratio of Kcat to Km for Bacteroides thetaiotaomicron GH92 alpha-mannosidase 2199 E537A mutant assessed as as mannose release after 16 hrs by HPLC relative to wild type enzyme"}, "[7]": {"substrate": "O=[N+]([O-])c1ccc(O[C@H]2O[C@H](CO)[C@@H](O)[C@H](O)[C@@H]2O)cc1", "assay": "as §3"}, "[8]": {"substrate": "OC[C@H]1O[C@H](O[C@H]2[C@@H](O)[C@H](O)[C@@H](CO)O[C@@H]2O)[C@@H](O)[C@@H](O)[C@@H]1O", "assay": "(§4) Activity of Bacteroides thetaiotaomicron GH92 alpha-mannosidase 2199 E537A mutant assessed as as mannose release after 16 hrs by HPLC relative to wild type enzyme"}, "[9]": {"substrate": "O=[N+]([O-])c1ccc(O[C@H]2O[C@H](CO)[C@@H](O)[C@H](O)[C@@H]2O)cc1", "assay": "as §4"}, "[10]": {"substrate": "OC[C@H]1O[C@H](O[C@H]2[C@@H](O)[C@H](O)[C@@H](CO)O[C@@H]2O)[C@@H](O)[C@@H](O)[C@@H]1O", "assay": "(§5) Activity of Bacteroides thetaiotaomicron GH92 alpha-mannosidase 2199 E537Q mutant assessed as as mannose release after 16 hrs by HPLC relative to wild type enzyme"}, "[11]": {"substrate": "O=[N+]([O-])c1ccc(O[C@H]2O[C@H](CO)[C@@H](O)[C@H](O)[C@@H]2O)cc1", "assay": "as §5"}, "[12]": {"substrate": "OC[C@H]1O[C@H](O[C@H]2[C@@H](O)[C@H](O)[C@@H](CO)O[C@@H]2O)[C@@H](O)[C@@H](O)[C@@H]1O", "assay": "(§6) Ratio of Kcat to Km for Bacteroides thetaiotaomicron GH92 alpha-mannosidase 2199 E537Q mutant assessed as as mannose release after 16 hrs by HPLC relative to wild type enzyme"}, "[13]": {"substrate": "O=[N+]([O-])c1ccc(O[C@H]2O[C@H](CO)[C@@H](O)[C@H](O)[C@@H]2O)cc1", "assay": "as §6"}}, "data": [{"protein": "Alpha-1,2-mannosidase (BT_3990) (Bacteroides thetaiotaomicron), Q8A0N1 N601A (protein) MKRLLLIACILNCTLLSQAKDWTQYVNPLMGSQSTFELSTGNTYPAIARPWGMNFWTPQTGKMGDGWQYTYTANKIRGFKQTHQPSPWINDYGQFSIMPIVGQPVFDEEKRASWFAHKGEVATPYYYKVYLAEHDIVTEMTPTERAVLFRFTFPENDHSYVVVDAFDKGSYIKIIPEENKIIGYTTRNSGGVPENFKNYFIIEFDKPFTYKATVENGNLQENVAEQTTDHAGAIIGFKTRKGEQVNARIASSFISFEQAAANMNELGKDNIEQLAQKGKDAWNQVLGKIEVEGGNLDQYRTFYSCLYRSLLFPRKFYELDANGQPIHYSPYNGQVLPGYMFTDTGFWDTFRCLFPLLNLMYPSVNKEMQEGLINTYLESGFFPEWASPGHRGCMVGNNSASILVDAYMKGVKVDDIKTLYEGLIHGTENVHPEVSSTGRLGYEYYNKLGYVPYDVKINENAARTLEYAYDDWCIYRLAKELKRPKKEISLFAKRAMNYKNLFDKESKLMRGRNEDGTFQSPFSPLKWGDAFTEGNSWHYTWSVFHDPQGLIDLMGGKEMFVTMMDSVFAVPPIFDDSYYGQVIHEIREMTVMNMGNYAHGAQPIQHMIYLYDYAGQPWKAQYWLRQVMDRMYTPGPDGYCGDEDNGQTSAWYVFSALGFYPVCPGTDEYVMGTPLFKKATLHFENGNSLVIDAPNNSTENFYIDSMSFNGADHTKNYLRHEDLFKGGTIKVDMSNRPNLNRGTKEEDMPYSFSKE", "values": [{"measurement": "kcat/Km", "setting": "[1]", "result": 0.37, "unit": "mM⁻¹ min⁻¹"}, {"measurement": "kcat/Km", "setting": "[2]", "result": 15, "unit": "mM⁻¹ min⁻¹"}, {"measurement": "kcat/Km", "setting": "[3]", "result": 0.003, "unit": "mM⁻¹ min⁻¹"}, {"measurement": "Km", "setting": "[4]", "result": 3.3, "unit": "mM"}, {"measurement": "kcat", "setting": "[4]", "result": 51, "unit": "min⁻¹"}, {"measurement": "Km", "setting": "[5]", "result": 9.7, "unit": "mM"}, {"measurement": "kcat", "setting": "[5]", "result": 0.033, "unit": "min⁻¹"}]}, {"protein": "Alpha-1,2-mannosidase (BT_2199) (Bacteroides thetaiotaomicron), Q8A5N9 E537A (protein) MVTRLFFLSICFPFLLTSCQQSKKTVEFVDYVNPLMGTESTFAFSHGNTYPAVAVPWGMNFWSPQTGENGSGWMYTYTDSLMRGFRQTHQPSPWINDYGTFSIMPLAGELKMSHKERLVPFSHQQEKATPYNYSVTFNNGLQTSLSATSRGAVFEVSFPEKEDQYVVVDAYNGGSSITIEPEKRLVKGATRYNNGGVPDNFANYFMMEFSHPVIEYGTYNGDTLLHHQTDVAADYTCAYLKFDVPAGEKLTIRTASSFISPEQAAINFNREVADADVQLISGKAREQWNNYLGRVEAEGGTDEQLRTFYSCLYRTLLFPREFYEFDSQGNPVYYSPYDGNVHDGYMYTDNGFWDTFRAVHPLFTLLYPEVSERVTQSIINAYNESGFMPEWASPGHRGCMIGNNSVSLLVDAWMKGIQTVDAEKALEAMIHQTQARHAEIASVGRDGFEYYDKLGYVPYPEVPEATAKTLEYAYADWCIARFAESLGKQDIADQYYQKAPNYRNLYYPEHGFMWTKDAKGNWRDRFDATEWGGPFTAGSSWHWTWSVFHDPEGLSELMGGHEPMIARLDSMFVAPNTYNYGTYGFVIHEIAEMVALNMGQYAHGNQPVQHAIYLYDYIGQPWKTQYHLRNVMDKLYNSGSKGYCGDEDNGQTSAWYVFSAMGFYPVCPGMPEYAIGSPLFKKVTLHLPEGKNFVVSAADNAADRPYIRKALLNGQEFTRNYLTHDELKQGGELNLSMDSVPNQQRGTQPADFPYSYSK", "values": [{"measurement": "kcat/Km", "setting": "[6]", "result": 0.031, "unit": "mM⁻¹ min⁻¹"}, {"measurement": "kcat/Km", "setting": "[7]", "result": 0.023, "unit": "mM⁻¹ min⁻¹"}, {"measurement": "Km", "setting": "[8]", "result": 874, "unit": "µM"}, {"measurement": "kcat", "setting": "[8]", "result": 0.027, "unit": "min⁻¹"}, {"measurement": "Km", "setting": "[9]", "result": "Not Active"}, {"measurement": "kcat", "setting": "[9]", "result": "Not Active"}]}, {"protein": "Alpha-1,2-mannosidase (BT_2199) (Bacteroides thetaiotaomicron), Q8A5N9 E537Q (protein) MVTRLFFLSICFPFLLTSCQQSKKTVEFVDYVNPLMGTESTFAFSHGNTYPAVAVPWGMNFWSPQTGENGSGWMYTYTDSLMRGFRQTHQPSPWINDYGTFSIMPLAGELKMSHKERLVPFSHQQEKATPYNYSVTFNNGLQTSLSATSRGAVFEVSFPEKEDQYVVVDAYNGGSSITIEPEKRLVKGATRYNNGGVPDNFANYFMMEFSHPVIEYGTYNGDTLLHHQTDVAADYTCAYLKFDVPAGEKLTIRTASSFISPEQAAINFNREVADADVQLISGKAREQWNNYLGRVEAEGGTDEQLRTFYSCLYRTLLFPREFYEFDSQGNPVYYSPYDGNVHDGYMYTDNGFWDTFRAVHPLFTLLYPEVSERVTQSIINAYNESGFMPEWASPGHRGCMIGNNSVSLLVDAWMKGIQTVDAEKALEAMIHQTQARHAEIASVGRDGFEYYDKLGYVPYPEVPEATAKTLEYAYADWCIARFAESLGKQDIADQYYQKAPNYRNLYYPEHGFMWTKDAKGNWRDRFDATEWGGPFTQGSSWHWTWSVFHDPEGLSELMGGHEPMIARLDSMFVAPNTYNYGTYGFVIHEIAEMVALNMGQYAHGNQPVQHAIYLYDYIGQPWKTQYHLRNVMDKLYNSGSKGYCGDEDNGQTSAWYVFSAMGFYPVCPGMPEYAIGSPLFKKVTLHLPEGKNFVVSAADNAADRPYIRKALLNGQEFTRNYLTHDELKQGGELNLSMDSVPNQQRGTQPADFPYSYSK", "values": [{"measurement": "Km", "setting": "[10]", "result": 571, "unit": "µM"}, {"measurement": "kcat", "setting": "[10]", "result": 0.026, "unit": "min⁻¹"}, {"measurement": "Km", "setting": "[11]", "result": 3.1, "unit": "mM"}, {"measurement": "kcat", "setting": "[11]", "result": 3.6, "unit": "min⁻¹"}, {"measurement": "kcat/Km", "setting": "[12]", "result": 0.046, "unit": "mM⁻¹ min⁻¹"}, {"measurement": "kcat/Km", "setting": "[13]", "result": 1.17, "unit": "mM⁻¹ min⁻¹"}]}]}
